From patent publication US20260166131A1, “METHOD FOR PROMOTING PATHOLOGICAL TDP-43 PROTEIN DEGRADATION, AND DRUG” (TALENGEN INTERNATIONAL LIMITED, priority 2022, published 2026)
“Also recorded” adds a separate entry of the source. Where two headings read alike, the source gives them in different places.

Legend:
[1] = Parkinson's model mice, 50 mg/kg tail vein
Procedure: Eighteen 6-week-age male C57BL/6J mice were injected intraperitoneally with 1-methyl-4-phenyl-1,2,3,6-tetrahydropyridine (MPTP) solution at a dose of 35 mg/kg/mouse for 5 consecutive days to establish a Parkinson's model. Preparation of MPTP solution: 45 mg of MPTP (Sigma, M0896) was dissolved in 9 ml of physiological saline solution to prepare a final concentration of 5 mg/ml. The mice were randomly divided into two groups according to their body weight: 6 mice in vehicle group, 12 mice in plasminogen group; and administration was begun to record as day 1. The mice in the plasminogen group were injected with 50 mg/kg body weight of plasminogen solution by tail vein, and the mice in the vehicle group were injected with 5 mL/kg body weight of vehicle solution (10 mM citric acid-sodium citrate solution, pH 7.4) by tail vein.

[2] = target: T1, TDP-43 (Mus musculus, UniProt Q921F2); experiment: TDP-43 in cytoplasm and nucleus of NSC34 cells treated with okadaic acid (Western blot); assay type: cell-based; set-up: host or cells: NSC34 cells; conditions: okadaic acid 2.5 ng/uL 24 h, plasminogen 0.5 mg/mL 24 hours, vs vehicle group
T1 sequence (Q921F2 whole entry): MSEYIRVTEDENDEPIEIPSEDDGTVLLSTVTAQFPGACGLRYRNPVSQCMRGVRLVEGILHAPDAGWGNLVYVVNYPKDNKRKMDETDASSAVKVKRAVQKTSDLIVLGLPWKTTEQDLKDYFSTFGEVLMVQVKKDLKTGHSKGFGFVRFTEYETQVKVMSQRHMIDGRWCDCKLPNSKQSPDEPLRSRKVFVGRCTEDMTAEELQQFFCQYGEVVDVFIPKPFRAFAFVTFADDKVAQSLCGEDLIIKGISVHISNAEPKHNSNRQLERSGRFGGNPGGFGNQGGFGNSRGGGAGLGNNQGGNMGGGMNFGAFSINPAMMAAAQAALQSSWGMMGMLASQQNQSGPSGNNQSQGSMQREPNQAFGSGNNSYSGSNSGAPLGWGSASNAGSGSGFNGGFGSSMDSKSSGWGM
Procedure: 10^6 NSC34 cells (Otwo Biotech, HTX1846) were inoculated in a 9 cm^2 culture dish, and cultured in DMEM medium (Gibco, 11965092) containing 10% fetal bovine serum (EVERY GREEN, 11011-8611). The cells were placed in a carbon dioxide incubator for culture at 37.0° C. and 5% CO2. After the cells grew for 48 hours and reached about 80%-90% abundance, the medium was changed, and subsequent experiments were performed. […] After adding plasminogen for 24 hours, the cells were harvested. The culture supernatant was sucked off, washing with 1×PBS, digesting with 1 mL of 0.25% pancreatic enzyme for 2-3 minutes, then stopping digestion with 5-6 mL of DMEM complete medium when the cells were obviously detached. The cells were slowly blown, and the suspension was collected into a centrifuge tube, centrifuging at 1500 rpm for 5 min to remove the supernatant, resuspending with pre-cooled 1×PBS, and counting the cells. 200 μL of plasma protein extraction reagent (the volume of a pellet of 2×10^6 cells is about 20 μL or 40 mg) (Solarbio, R0050) was added for every 20 μL of cell pellet. The cell pellet was completely dispersed into a single-cell suspension by pipette blow or high-speed vortex for 15 seconds, then ice-bathing for 10 minutes, vortexing vigorously at maximum speed for 10 seconds and centrifuging at 12,000-16,000 g for 10 minutes at 4° C. […]

[3] = target: T1, TDP-43; experiment: TDP-43 in brain tissue of okadaic acid-induced dementia model (FAD) mice (Western blot); assay type: in vivo; set-up: from tissue; host or cells: mouse spinal cord, gluteal muscle, brain, kidney cell nuclei; conditions: okadaic acid in basolateral amygdala, 50 mg/kg tail vein single dose, 6 hours, vs vehicle group
Procedure: Ten B6SJL-Tg (APPSwFlLon, PSEN1*M146L*L286V) 6799Vas/Mmjax (hereinafter referred to as FAD) female mice aged 30-32 weeks (purchased from Jackson lab, stock number: 034840) were taken to weigh before modeling as the model group, and five C57 female mice aged 6-7 weeks were selected as the blank group. After grouping, mice in the blank group and model group were anesthetized by intraperitoneal injection of tribromoethanol at a dose of 20 mL/kg. Model mice were located in the basolateral amygdala according to the mouse stereotaxic atlas (according to the coordinates of the bregma: AP-1.94 mm, ML+3.15 mm, DV-4.5 mm), and each mouse was slowly microinjected bilaterally. Mice in the blank group were only drilled at the coordinate location point without injection. The mice in the model group were injected with 50 ng/μL okadaic acid (manufacturer: Shanghai Yuanye Biotechnology Co., Ltd., catalog number S30686-25 ug:) solution, the injection rate was 0.5 μL/min, the injection volume was 2 μL, and after the injection, the syringe stayed for 6 minutes and then slowly withdrew. […] The mice were killed 6 hours after the single administration and the brain tissues were obtained. After homogenization, TDP-43 was detected by western blot.

B1: plasminogen: human plasminogen purified from human donor plasma, in which human Lys-plasminogen and Glu-plasminogen are >98% (protein)
chain: KVYLSECKTGNGKNYRGTMSKTKNGITCQKWSSTSPHRPRFSPATHPSEGLEENYCRNPDNDPQGPWCYTTDPEKRYDYCDILECEEECMHCSGENYDGKISKTMSGLECQAWDSQSPHAHGYIPSKFPNKNLKKNYCRNPDRELRPWCFTTDPNKRWELCDIPRCTTPPPSSGPTYQCLKGTGENYRGNVAVTVSGHTCQHWSAQTPHTHNRTPENFPCKNLDENYCRNPDGKRAPWCHTTNSQVRWEYCKIPSCDSSPVSTEQLAPTAPPELTPVVQDCYHGDGQSYRGTSSTTTTGKKCQSWSSMTPHRHQKTPENYPNAGLTMNYCRNPDADKGPWCFTTDPSVRWEYCNLKKCSGTEASVVAPPPVVLLPDVETPSEEDCMFGNGKGYRGKRATTVTGTPCQDWAAQEPHRHSIFTPETNPRAGLEKNYCRNPDGDVGGPWCYTTNPRKLYDYCDVPQCAAPSFDCGKPQVEPKKCPGRVVGGCVAHPHSWPWQVSLRTRFGMHFCGGTLISPEWVLTAAHCLEKSPRPSSYKVILGAHQEVNLEPHVQEIEVSRLFLEPTRKDIALLKLSSPAVITDKVIPACLPSPNYVVADRTECFITGWGETQGTFGAGLLKEAQLPVIENKVCNRYEFLNGRVQSTELCAGHLAGGTDSCQGDSGGPLVCFEKDKYILQGVTSWGLGCARPNKPGVYVRVSRFVTWIEGVMRNN
ratio of brain tissue plasminogen level to blood plasminogen level ([1]; 2 hours): 3.47% | ratio of spinal cord tissue plasminogen level to blood plasminogen level ([1]; 2 hours): 1.24% | ratio of brain tissue plasminogen level to blood plasminogen level ([1]; 6 hours): 4.18% | ratio of spinal cord tissue plasminogen level to blood plasminogen level ([1]; 6 hours): 1.16% | ratio of brain tissue plasminogen level to blood plasminogen level ([1]; 12 hours): 8.51% | ratio of spinal cord tissue plasminogen level to blood plasminogen level ([1]; 12 hours): 1.46% | level of TDP-43 in the cytoplasm [2]: significantly lower; also recorded: almost significantly or significantly lower | level of TDP-43 in the nucleus [2]: significantly lower; also recorded: almost significantly or significantly lower | level of TDP-43 monomer in brain tissue [3]: significantly lower | level of low molecular weight TDP-43 in brain tissue [3]: significantly lower
